Consider one protein from article PMC3985186, “The influence of dynein processivity control, MAPs, and microtubule ends on directional movement of a localising mRNA” (eLife, 2014).

Data set [1] concerns the molecule itself. The data set can be described thus: stepwise photobleaching (TIR microscopy); dilute solution (1 pM) of kin401T99N:mGFP added to imaging chambers with HiLyte 647-labelled microtubules bound to the glass, no ATP, oxygen scavenging agent.
Data set [2] concerns the molecule itself. Nature of the data set: SEC; gel filtration of purified kin401T99N:mGFP before concentration.

B1: GFP-labelled Drosophila kinesin-1 (aa 1-401) rigor mutant, Kin401T99N:mGFP (domain or fragment)
chain: not shown
notes: The construct without the mutation was a gift from T Surrey; also called rigor kinesin; GFP-labelled rigor kinesin; source: bacteria (BL21(DE3) strain), dimeric fraction purified using gel filtration; not shown: monomeric GFP, C-terminal, kept
Consider B1, for which the “stoichiometry N” value is at most 2 in data set [1] and 2 in data set [2].
